Literature values in PMC7600996.

Molecular target: RseA (Escherichia coli) (UniProt P0AFX7)
Sequence of UniProt P0AFX7 (P0AFX7 whole entry): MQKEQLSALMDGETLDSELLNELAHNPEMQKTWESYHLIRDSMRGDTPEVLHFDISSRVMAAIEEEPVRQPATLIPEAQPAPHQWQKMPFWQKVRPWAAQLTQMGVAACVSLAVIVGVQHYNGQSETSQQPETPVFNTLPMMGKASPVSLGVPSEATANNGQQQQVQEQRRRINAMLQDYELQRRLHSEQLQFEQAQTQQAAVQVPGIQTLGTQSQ

In the case of RpoE (sigma E) (from UniProt P0AGB6), the Kd is listed as 0.2 nM.
